{"source": "patent US20130165347", "tested_on": "Terminal deoxynucleotidyl transferase (TdT, pCMV-TdT / pMTdT)", "assay": "cell_activity", "conditions": "wild-type CHO KA8 cells, 19 of 27 clones, I-SceI-cleaved ends; 4% without TdT; N addition absent in Ku80- or XRCC4-deficient cells"}
{"sequence": "TACCCTGTTATCCCTA (double strand)", "values": [{"measurement": "activity (% junctions with N additions)", "result": 70}]}
